US20120184019A1 (University of California, published 2012)
Substitutions are numbered along the chain they refer to. Names may count otherwise.

B1: Alp8A-GFP fusion protein (Orf250 of Proteus vulgaris plasmid Rts1 fused to GFP) (other)
chain: MELLRKGRSFGGLFLIKGKVMNQSERFIVGLDIGYSNVKVACGGTQLLDPKVTIFPAYATPEPESDLALAKKSPDEVKVYPNGTEWRVFTNRVGHRELHESYHSTEMYKALFYGALIKATEGRSDVIDILVTGLPVRIANSEADRSQLCESFTGKHEVTPGRFILVKEVVVLSQGVGIMNDILNTEGLISDEDLEFSNILVIDPGYYSMDYVTFHRGDKKNEFSGSSLNATSVIIEEIVRVLERDYPKEGAQETERIETALRLGNKTFNNGFRSVEIEPLIEEVSHRIVSSVVAELLKRTRSIGPVHIIISAGGGARFYDHFIKEAFPQARILQSVNPVASNSIGYWHYGVNKLSSQSD
notes: Produced in E. coli TOP10 from pEB400; also called Rts1 orf250; pPtrcalp8A-gfp product; not shown: GFP from plasmid pDSW210
B2: Alp7A-GFP fusion protein (OrfB of Bacillus subtilis natto plasmid pLS20 with C-terminal GFP) (other)
chain: MNISRMNVDFGNSMYMNLIDGYFFELPTNVVEISKEAAEGKFTSIVEDPADLKDRLLVSTVIDETERYFLVGELAEPEVLGNQHIKKLHNKVESHIPYVTFLAATAYYQALKGKREDNEVTIEYFQTMLPIWLLKKLDKFSEMQKRMASKFLGTHQVKVLTLGLEKELTIKVEDAACRIESEVARWAIKKNFDLEDKDYAEQFKNYDVVFCDLGGGTDDLVLLPAGLKPPKSRDSFVSNTEAPFLAHLEKLRKEKLLEHFDSVRELEKFIYSNIGKTKMERRDGNTGQKFDLTDIIKKSLKEYTEIKIAQAENTFPAPKDKVYKYLYFGGVGEVLEESISVVTEERYGRDISESNHIVAEDARLLNLYGLEVLSRAEQVKKQANEKEAQSI
notes: Observed inside living or fixed E. coli and B. subtilis cells; Not a purified protein; also called pLS20 OrfB; not shown: C-terminal GFP from plasmid pMUTIN-GFP+
B3: Alp7A(D212A)-GFP (other)
chain: B2 chain with D212A
notes: Observed in B. subtilis PY79 cells; also called mini-pLS20alp7A(D212A)-gfp product; not shown: C-terminal GFP from plasmid pMUTIN-GFP+
B4: Alp7A(E180A)-GFP (other)
chain: B2 chain with E180A
notes: Observed in B. subtilis PY79 cells; also called mini-pLS20alp7A(E180A)-gfp product; not shown: C-terminal GFP from plasmid pMUTIN-GFP+

Experiments:
[1] = molecular target: the molecule itself; assay: self-assembly into filaments, GFP fluorescence microscopy in E. coli
[2] = molecular target: the molecule itself; assay: GFP fluorescence microscopy in B. subtilis (self-assembly into filaments)
[3] = molecular target: the molecule itself; assay: self-assembly into filaments, GFP fluorescence microscopy, time-lapse and FRAP in B. subtilis

Protein	binding result [1]	other results
B1	binds	–
B2	binds	–
B3	–	binding result [2]: no binding
B4	–	binding result [3]: binds
